Tests used:
Assay in all cases: anti-FLAG co-IP from lysate of N-FLAG B3GNT2 cells, mass spectrometry
[1] = molecular target: T1, UBTF (human, UniProt P17480-2 1-727, limits assumed)
T1 construct: also called NP_001070151.1 (+3)
T1 sequence (looked up): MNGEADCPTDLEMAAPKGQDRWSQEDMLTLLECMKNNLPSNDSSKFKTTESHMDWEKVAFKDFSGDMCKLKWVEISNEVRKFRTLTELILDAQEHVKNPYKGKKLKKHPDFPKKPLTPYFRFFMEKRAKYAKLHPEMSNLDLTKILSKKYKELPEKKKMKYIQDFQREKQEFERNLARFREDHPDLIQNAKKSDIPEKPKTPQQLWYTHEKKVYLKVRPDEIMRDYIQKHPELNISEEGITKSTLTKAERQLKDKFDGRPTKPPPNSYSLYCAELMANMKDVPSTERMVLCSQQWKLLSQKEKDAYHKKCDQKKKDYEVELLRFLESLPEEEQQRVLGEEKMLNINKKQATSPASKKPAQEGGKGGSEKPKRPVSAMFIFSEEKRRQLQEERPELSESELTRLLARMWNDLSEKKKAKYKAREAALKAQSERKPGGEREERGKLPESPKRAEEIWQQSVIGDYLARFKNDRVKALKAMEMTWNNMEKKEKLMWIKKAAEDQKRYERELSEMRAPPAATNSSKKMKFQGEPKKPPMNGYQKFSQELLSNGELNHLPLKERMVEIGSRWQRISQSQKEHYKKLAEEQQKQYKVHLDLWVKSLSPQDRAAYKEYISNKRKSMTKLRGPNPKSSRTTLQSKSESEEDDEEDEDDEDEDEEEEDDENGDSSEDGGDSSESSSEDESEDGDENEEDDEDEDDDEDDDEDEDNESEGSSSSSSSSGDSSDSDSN

[2] = molecular target: T2, IFI16 (human, UniProt Q16666-2 1-729, limits assumed)
T2 construct: also called NP_001193496.1 (+3)
T2 sequence (looked up): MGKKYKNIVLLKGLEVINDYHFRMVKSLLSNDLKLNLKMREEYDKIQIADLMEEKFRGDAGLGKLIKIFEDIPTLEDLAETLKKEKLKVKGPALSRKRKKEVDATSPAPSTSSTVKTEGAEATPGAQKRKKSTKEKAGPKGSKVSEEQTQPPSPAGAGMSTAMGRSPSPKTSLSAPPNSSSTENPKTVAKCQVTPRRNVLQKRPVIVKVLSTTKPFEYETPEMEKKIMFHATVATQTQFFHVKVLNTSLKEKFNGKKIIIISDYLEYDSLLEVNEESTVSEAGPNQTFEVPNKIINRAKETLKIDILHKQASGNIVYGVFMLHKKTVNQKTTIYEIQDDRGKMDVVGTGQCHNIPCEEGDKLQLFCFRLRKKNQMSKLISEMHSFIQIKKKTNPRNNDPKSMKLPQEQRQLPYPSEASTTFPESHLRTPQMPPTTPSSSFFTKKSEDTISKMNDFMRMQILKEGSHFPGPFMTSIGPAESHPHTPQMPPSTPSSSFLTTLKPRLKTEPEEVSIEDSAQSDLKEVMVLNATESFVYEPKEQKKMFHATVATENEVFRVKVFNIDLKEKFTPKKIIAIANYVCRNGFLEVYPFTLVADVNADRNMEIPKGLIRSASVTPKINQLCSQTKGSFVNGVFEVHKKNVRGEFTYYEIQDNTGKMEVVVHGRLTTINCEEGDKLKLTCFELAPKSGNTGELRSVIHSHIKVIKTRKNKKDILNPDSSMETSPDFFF

[3] = molecular target: RPL34 (human, UniProt P49207 2-117)

co-IP mass spectrometry count [1]: 0
co-IP mass spectrometry count [2]: 0
co-IP mass spectrometry count [3]: 0
B1: N-terminal FLAG tagged B3GNT2 (enzyme, human, UniProt Q9NY97 1-397, looked up)
chain: MSVGRRRIKLLGILMMANVFIYFIMEVSKSSSQEKNGKGEVIIPKEKFWKISTPPEAYWNREQEKLNRQYNPILSMLTNQTGEAGRLSNISHLNYCEPDLRVTSVVTGFNNLPDRFKDFLLYLRCRNYSLLIDQPDKCAKKPFLLLAIKSLTPHFARRQAIRESWGQESNAGNQTVVRVFLLGQTPPEDNHPDLSDMLKFESEKHQDILMWNYRDTFFNLSLKEVLFLRWVSTSCPDTEFVFKGDDDVFVNTHHILNYLNSLSKTKAKDLFIGDVIHNAGPHRDKKLKYYIPEVVYSGLYPPYAGGGGFLYSGHLALRLYHITDQVHLYPIDDVYTGMCLQKLGLVPEKHKGFRTFDIEEKNKNNICSYVDLMLVHSRKPQEMIDIWSQLQSAHLKC
notes: Bait of the co-IP; pulled down from cell lysate with mouse anti-FLAG antibody; also called N-FLAG B3GNT2; N-term FLAG; not shown: N-terminal FLAG tag
